From PMC3136511 come the findings set out here.

This assay has as its target Nup145N(443–605) (Saccharomyces cerevisiae) (UniProt P49687). Nature of the assay: SAXS.

As usually defined, the stoichiometry N is the number of molecules, sites or subunits per partner or assembly.

“Nup145N(443–605) (from UniProt P49687 443-605) (domain or fragment)” had a dimer fraction of 98% and a stoichiometry N of 2.
